The supplement of paper PMC11246515
± gives the standard deviation of the averaged measurements.

Experiment: total protein half-life in vivo (active degradation + dilution); higher = more stable protein
[1] = E. coli NCM3722 delta-clpP delta-lon delta-hslV, growth: N-lim chemostat, doubling time 6 h
[2] = E. coli NCM3722 delta-clpP, growth: N-lim chemostat, doubling time 6 h
[3] = E. coli NCM3722 delta-hslV, growth: N-lim chemostat, doubling time 6 h
[4] = E. coli NCM3722 delta-lon, growth: N-lim chemostat, doubling time 6 h
[5] = E. coli NCM3722 delta-smpB, growth: N-lim chemostat, doubling time 6 h
[6] = wild type E. coli NCM3722, growth: C-lim chemostat, doubling time 3 h
[7] = wild type E. coli NCM3722, growth: C-lim chemostat, doubling time 6 h
[8] = wild type E. coli NCM3722, growth: C-lim chemostat, doubling time 12 h
[9] = wild type E. coli NCM3722, growth: N-lim chemostat, doubling time 6 h
[10] = wild type E. coli NCM3722, growth: N-lim chemostat, doubling time 12 h
[11] = wild type E. coli NCM3722, growth: P-lim chemostat, doubling time 6 h
[12] = wild type E. coli NCM3722, growth: P-lim chemostat, doubling time 12 h

Row | Sequence | total protein half-life in vivo [1] | total protein half-life in vivo [2] | total protein half-life in vivo [3] | total protein half-life in vivo [4] | total protein half-life in vivo [5] | total protein half-life in vivo [6] | total protein half-life in vivo [7] | total protein half-life in vivo [8] | total protein half-life in vivo [9] | total protein half-life in vivo [10] | total protein half-life in vivo [11] | total protein half-life in vivo [12]
1 | MAGNDREPIGRKGKPTRPVKQKVSRRRYEDDDDYDDYDDYEDEEPMPRKGKGKGKGRKPRGKRGWLWLLLKLAIVFAVLIAIYGVYLDQKIRSRIDGKVWQLPAAVYGRMVNLEPDMTISKNEMVKLLEATQYRQVSKMTRPGEFTVQANSIEMIRRPFDFPDSKEGQVRARLTFDGDHLATIVNMENNRQFGFFRLDPRLITMISSPNGEQRLFVPRSGFPDLLVDTLLATEDRHFYEHDGISLYSIGRAVLANLTAGRTVQGASTLTQQLVKNLFLSSERSYWRKANEAYMALIMDARYSKDRILELYMNEVYLGQSGDNEIRGFPLASLYYFGRPVEELSLDQQALLVGMVKGASIYNPWRNPKLALERRNLVLRLLQQQQIIDQELYDMLSARPLGVQPRGGVISPQPAFMQLVRQELQAKLGDKVKDLSGVKIFTTFDSVAQDAAEKAAVEGIPALKKQRKLSDLETAIVVVDRFSGEVRAMVGGSEPQFAGYNRAMQARRSIGSLAKPATYLTALSQPKIYRLNTWIADAPIALRQPNGQVWSPQNDDRRYSESGRVMLVDALTRSMNVPTVNLGMALGLPAVTETWIKLGVPKDQLHPVPAMLLGALNLTPIEVAQAFQTIASGGNRAPLSALRSVIAEDGKVLYQSFPQAERAVPAQAAYLTLWTMQQVVQRGTGRQLGAKYPNLHLAGKTGTTNNNVDTWFAGIDGSTVTITWVGRDNNQPTKLYGASGAMSIYQRYLANQTPTPLNLVPPEDIADMGVDYDGNFVCSGGMRILPVWTSDPQSLCQQSEMQQQPSGNPFDQSSQPQQQPQQQPAQQEQKDSDGVAGWIKDMFGSN | 6.443 ± 0.011 h | 6.43 ± 0.51 h | 6.2211 ± 0.00055 h | 6.266 ± 0.031 h | 6.19 ± 0.56 h | 3.17 ± 0.036 h | 6.09 ± 0.71 h | 12.4 ± 1.3 h | 6.01 ± 0.19 h | 12.5 ± 0.15 h | 6.15 ± 0.58 h | 12.4 ± 0.17 h
2 | MAGNTIGQLFRVTTFGESHGLALGCIVDGVPPGIPLTEADLQHDLDRRRPGTSRYTTQRREPDQVKILSGVFEGVTTGTSIGLLIENTDQRSQDYSAIKDVFRPGHADYTYEQKYGLRDYRGGGRSSARETAMRVAAGAIAKKYLAEKFGIEIRGCLTQMGDIPLDIKDWSQVEQNPFFCPDPDKIDALDELMRALKKEGDSIGAKVTVVASGVPAGLGEPVFDRLDADIAHALMSINAVKGVEIGDGFDVVALRGSQNRDEITKDGFQSNHAGGILGGISSGQQIIAHMALKPTSSITVPGRTINRFGEEVEMITKGRHDPCVGIRAVPIAEAMLAIVLMDHLLRQRAQNADVKTDIPRW | 5.73 ± 0.43 h | 5.29 ± 0.1 h | 5.199 ± 0.021 h |  | 4.78 ± 0.14 h | 3.41 ± 0.23 h | 5.92 ± 0.13 h | 12 ± 0.84 h | 5.09 ± 0.23 h | 9.61 ± 0.79 h | 6.51 ± 0.34 h | 12.6 ± 1.4 h
3 | MAGPVLYQDRAMKQITFAPRNHLLTNTNTWTPDSQWLVFDVRPSGASFTGETIERVNIHTGEVEVIYRASQGAHVGVVTVHPKSEKYVFIHGPENPDETWHYDFHHRRGVIVEGGKMSNLDAMDITAPYTPGVLRGGSHVHVFSPNGERVSFTYNDHVMHELDPALDLRNVGVAAPFGPVNVQKQHPREYSGSHWCVLVSKTTPTPQPGSDEINRAYEEGWVGNHALAFIGDTLSPKGEKVPELFIVELPQDEAGWKAAGDAPLSGTETTLPAPPRGVVQRRLTFTHHRAYPGLVNVPRHWVRCNPQGTQIAFLMRDDNGIVQLWLISPQGGEPRQLTHNKTDIQSAFNWHPSGEWLGFVLDNRIACAHAQSGEVEYLTEHHANSPSADAVVFSPDGQWLAWMEGGQLWITETDR | 5.27 ± 0.21 h | 4.73 ± 0.52 h | 4.97 ± 0.094 h | 4.8 ± 0.15 h | 4.67 ± 0.09 h | 3.17 ± 0.043 h | 5.92 ± 0.44 h | 11.1 ± 1.4 h | 4.8 ± 0.56 h | 8.45 ± 0.1 h | 6.23 ± 0.21 h | 11.3 ± 0.79 h
4 | MAGWFELSKSSDNQFRFVLKAGNGETILTSELYTSKTSAEKGIASVRSNSPQEERYEKKTASNGKFYFNLKAANHQIIGSSQMYATAQSRETGIASVKANGTSQTVKDNT |  | 5.5 ± 0.46 h | 6 ± 0.94 h | 6.31 ± 1.2 h | 5.48 ± 0.5 h | 3.2 ± 0.24 h | 5.83 ± 0.21 h | 11.2 ± 0.74 h | 5.24 ± 0.059 h | 9.51 ± 0.29 h | 5.54 ± 0.092 h | 11 ± 0.41 h
5 | MAHPPRLNDDKPVIWTVSVTRLFELFRDISLEFDHLANITPIQLGFEKAVTYIRKKLANERCDAIIAAGSNGAYLKSRLSVPVILIKPSGYDVLQALAKAGKLTSSIGVVTYQETIPALVAFQKTFNLRLDQRSYITEEDARGQINELKANGTEAVVGAGLITDLAEEAGMTGIFIYSAATVRQAFSDALDMTRMSLRHNTHDATRNALRTRYVLGDMLGQSPQMEQVRQTILLYARSSAAVLIEGETGTGKELAAQAIHREYFARHDARQGKKSHPFVAVNCGAIAESLLEAELFGYEEGAFTGSRRGGRAGLFEIAHGGTLFLDEIGEMPLPLQTRLLRVLEEKEVTRVGGHQPVPVDVRVISATHCNLEEDMQQGRFRRDLFYRLSILRLQLPPLRERVADILPLAESFLKVSLAALSAPFSAALRQGLQASETVLLHYDWPGNIRELRNMMERLALFLSVEPTPDLTPQFMQLLLPELARESAKTPAPRLLTPQQALEKFNGDKTAAANYLGISRTTFWRRLKS | 4.26 ± 0.052 h | 2.4 ± 0.6 h |  | 2.71 h | 2.277 ± 0.021 h | 2.18 ± 0.55 h | 4.02 ± 0.54 h | 5.89 ± 0.42 h | 2.53 ± 0.25 h | 4.31 h |  | 
6 | MAHRPRWTLSQVTELFEKPLLDLLFEAQQVHRQHFDPRQVQVSTLLSIKTGACPEDCKYCPQSSRYKTGLEAERLMEVEQVLESARKAKAAGSTRFCMGAAWKNPHERDMPYLEQMVQGVKAMGLEACMTLGTLSESQAQRLANAGLDYYNHNLDTSPEFYGNIITTRTYQERLDTLEKVRDAGIKVCSGGIVGLGETVKDRAGLLLQLANLPTPPESVPINMLVKVKGTPLADNDDVDAFDFIRTIAVARIMMPTSYVRLSAGREQMNEQTQAMCFMAGANSIFYGCKLLTTPNPEEDKDLQLFRKLGLNPQQTAVLAGDNEQQQRLEQALMTPDTDEYYNAAAL | 3.43 ± 0.23 h | 2.236 ± 0.018 h | 0.669 h | 0.723 ± 0.084 h | 0.799 ± 0.048 h | 0.8031 ± 0.0044 h | 1.3 ± 0.08 h | 1.44 ± 0.52 h | 0.897 ± 0.17 h | 1.09 ± 0.08 h | 1.44 ± 0.36 h | 2.68 ± 0.76 h
